{
  "source": "patent US20200190501",
  "proteins": {"B1": {"name": "dockerin-fused chimeric beta-agarase AgaB (AgaB-Doc) (protein)", "chain": "GDNSKFDSATDLPVEQEQEQETEQEGEPEESSEQDLVEEVDWKDIPVPADAGPNMKWEFQEISDNFEYEAPADNKGSEFLEKWDDFYHNAWAGPGLTEWKRDRSYVADGELKMWATRKPGSDKINMGCITSKTRVVYPVYIEARAKVMNSTLASDVWLLSADDTQEIDILEAYGADYSESAGKDHSYFSKKVHISHHVFIRDPFQDYQPKDAGSWFEDGTVWNKEFHRFGVYWRDPWHLEYYIDGVLVRTVSGKDIIDPKHFTNTTDPGNTEIDTRTGLNKEMDIIINTEDQTWRSSPASGLQSNTYTPTDNELSNIENNTFGVDWIRIYKPVEKVNKDGKVNAIDYAVLKSILLGTNTNVDLSVSDMNKDGKVNALDLAVLKKMLLS"}},
  "target": "T1, mini-cellulose-binding protein A (mCbpA), P38058",
  "T1 chain": "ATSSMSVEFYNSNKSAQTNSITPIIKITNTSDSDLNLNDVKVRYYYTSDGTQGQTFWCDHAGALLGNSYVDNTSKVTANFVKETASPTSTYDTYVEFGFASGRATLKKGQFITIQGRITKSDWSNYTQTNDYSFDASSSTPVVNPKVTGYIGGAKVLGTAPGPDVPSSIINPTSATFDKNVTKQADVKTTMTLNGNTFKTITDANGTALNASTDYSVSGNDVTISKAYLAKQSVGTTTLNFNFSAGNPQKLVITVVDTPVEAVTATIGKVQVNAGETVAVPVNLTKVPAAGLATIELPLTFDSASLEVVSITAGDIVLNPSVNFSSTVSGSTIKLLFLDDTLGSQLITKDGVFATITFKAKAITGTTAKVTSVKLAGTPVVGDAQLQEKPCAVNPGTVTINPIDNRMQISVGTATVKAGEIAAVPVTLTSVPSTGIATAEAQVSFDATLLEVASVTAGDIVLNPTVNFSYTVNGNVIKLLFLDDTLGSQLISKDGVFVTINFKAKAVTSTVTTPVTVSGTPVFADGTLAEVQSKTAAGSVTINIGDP",
  "data": [
    {"protein": "B1", "values": [
      {"measurement": "degradation activity using purified agar as a substrate", "result": "the degradation activity increased in the order of agarase, agarase-expansin, and agarase-expansin-mCbpA"}
    ]}
  ]
}
